Columns and labels:
[1] = target: T1, FLAG-His-tagged AC1-M (AC1 amino acids 236-612) (bovine, UniProt P19754 236-612); experiment: pull-down; pairwise pull-down, two purified proteins from E. coli, 5 μg of each, FLAG-His-tagged AC1 fragment held on anti-FLAG M2 affinity gel, Co-IP buffer, 500 μL, 2 hr at 4°C; washed with PBS containing 1% Triton X-100; western blot; settings: both partners purified
T1 construct: Ends of the tags as in the printed name His-AC1-M-FLAG; also called His-AC1-M-FLAG; M, cytosolic region between the 2 transmembrane domains; not shown: His, N-terminal, kept; FLAG, C-terminal, kept

[2] = target: T2, His-XIAP purified from E. coli (human, UniProt P98170 1-497); experiment: pull-down; GST, GST-TRIP-Br1 or GST-TRIP-Br1 truncation mutants used to capture His-XIAP purified from E. coli; settings: both partners purified
T2 construct: also called purified XIAP; source: E. coli BL21, purified (Ni-NTA, with 200 μM zinc sulfate)
T2 sequence (P98170 whole entry, the tested form may be a part): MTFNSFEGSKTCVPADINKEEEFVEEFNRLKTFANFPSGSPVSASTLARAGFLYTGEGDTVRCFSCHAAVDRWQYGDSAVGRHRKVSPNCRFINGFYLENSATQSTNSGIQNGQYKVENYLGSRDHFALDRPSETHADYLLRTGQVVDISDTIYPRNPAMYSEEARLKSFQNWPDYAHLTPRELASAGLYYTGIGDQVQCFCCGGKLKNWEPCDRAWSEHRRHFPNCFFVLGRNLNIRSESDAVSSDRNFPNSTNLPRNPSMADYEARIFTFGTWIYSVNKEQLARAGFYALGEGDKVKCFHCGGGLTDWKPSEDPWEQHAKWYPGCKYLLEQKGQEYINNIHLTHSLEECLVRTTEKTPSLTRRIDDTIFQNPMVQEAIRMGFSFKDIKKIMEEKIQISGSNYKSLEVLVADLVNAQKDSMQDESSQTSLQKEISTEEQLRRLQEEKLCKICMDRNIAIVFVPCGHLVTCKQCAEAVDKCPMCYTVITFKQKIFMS

T1 sequence (P19754 236-612): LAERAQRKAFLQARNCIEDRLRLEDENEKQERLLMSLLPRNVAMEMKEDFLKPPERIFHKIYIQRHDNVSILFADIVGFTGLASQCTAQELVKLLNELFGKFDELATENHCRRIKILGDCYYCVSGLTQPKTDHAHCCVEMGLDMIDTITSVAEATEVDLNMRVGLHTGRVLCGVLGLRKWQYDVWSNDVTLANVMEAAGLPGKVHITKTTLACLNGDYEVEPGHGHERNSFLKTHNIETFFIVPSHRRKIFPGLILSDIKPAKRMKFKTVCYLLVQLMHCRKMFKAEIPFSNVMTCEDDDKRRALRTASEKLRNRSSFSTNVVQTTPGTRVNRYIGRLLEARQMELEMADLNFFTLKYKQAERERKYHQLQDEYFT

binding result [1]	binding result [2]	Binder
binds	–	purified TRIP-Br1 (His-tagged at both N and C termini) (natural protein, human, UniProt Q9UHV2 1-236, looked up, TRIP-Br1 (SERTAD1), human, cDNA amplified from Calu-3 cells; The methods call it His-TRIP-Br1; the legends say His-tagged at both termini; also called His-TRIP-Br1; source: E. coli BL21 (codon plus), purified (Ni-NTA); not shown: His, N-terminal, kept; His, C-terminal, kept) MLSKGLKRKREEEEEKEPLAVDSWWLDPGHTAVAQAPPAVASSSLFDLSVLKLHHSLQQSEPDLRHLVLVVNTLRRIQASMAPAAALPPVPSPPAAPSVADNLLASSDAALSASMASLLEDLSHIEGLSQAPQPLADEGPPGRSIGGAAPSLGALDLLGPATGCLLDDGLEGLFEDIDTSMYDNELWAPASEGLKPGPEDGPGKEEAPELDEAELDYLMDVLVGTQALERPPGPGR
–	binds	GST-TRIP-Br1 fusion protein (full-length TRIP-Br1 fused with GST) (natural protein, human, UniProt Q9UHV2 1-236, looked up, also called Sertad1; SEI-1; source: E. coli BL21 codon plus, purified (glutathione-Sepharose)) MLSKGLKRKREEEEEKEPLAVDSWWLDPGHTAVAQAPPAVASSSLFDLSVLKLHHSLQQSEPDLRHLVLVVNTLRRIQASMAPAAALPPVPSPPAAPSVADNLLASSDAALSASMASLLEDLSHIEGLSQAPQPLADEGPPGRSIGGAAPSLGALDLLGPATGCLLDDGLEGLFEDIDTSMYDNELWAPASEGLKPGPEDGPGKEEAPELDEAELDYLMDVLVGTQALERPPGPGR

Source: publication PMC5503512, “The complex of TRIP-Br1 and XIAP ubiquitinates and degrades multiple adenylyl cyclase isoforms” (eLife, 2017)
